In PMC6235402, “Paired Immunoglobulin-like Type 2 Receptor Alpha G78R variant alters ligand binding and confers protection to Alzheimer's disease” (PLoS Genetics, 2018):
Where two headings read alike, the source gives them in different places.

B1: NPDC1 extracellular domain (1-190 aa) fused to murine IgG2a Fc (Fc fusion)
chain: GHPDVAACPGSLDCALKRRARCPPGAHACGPCLQPFQEDQQGLCVPRMRRPPGGGRPQPRLEDEIDFLAQELARKESGHSTPPLPKDRQRLPEPATLGFSARGQGLELGLPSTPGTPTPTPHTSLGSPVSSDPVHMSPLEPRGGQGDGLALVLILA
B2: NPDC1-His (ligand, human, UniProt Q9NQX5 35-190, looked up)
chain: GHPDVAACPGSLDCALKRRARCPPGAHACGPCLQPFQEDQQGLCVPRMRRPPGGGRPQPRLEDEIDFLAQELARKESGHSTPPLPKDRQRLPEPATLGFSARGQGLELGLPSTPGTPTPTPHTSLGSPVSSDPVHMSPLEPRGGQGDGLALVLILA
notes: the construct and its limits are not described in the methods; Likely a soluble extracellular construct

Columns and labels:
[1] = target: PILRA F76A, full length (human) (UniProt Q9UKJ1); test: flow cytometry on cells; 293T cells transfected with full-length PILRA variants, 48 h; incubated with soluble NPDC1-mFc at 50 ug/ml for 30 min on ice; anti-PILRA (APC) and anti-mouse IgG2a (FITC); percent of double-positive cells relative to G78 PILRA (100%)
[2] = target: PILRA R72A, full length (human) (UniProt Q9UKJ1); test: as above
[3] = target: PILRA R78 (AD protective) variant, G78R (rs1859788), full length (human) (UniProt Q9UKJ1); test: as above
[4] = target: PILRA S80G, full length (human) (UniProt Q9UKJ1); test: as above
[5] = target: PILRA Q140A, full length (human) (UniProt Q9UKJ1); test: as above
[6] = target: PILRA R78 (AD protective) variant, G78R (rs1859788), full length (human) (UniProt Q9UKJ1); test: as above; remark: listed apart in the source
[7] = target: PILRA S141A, full length (human) (UniProt Q9UKJ1); test: as above
[8] = target: PILRA R78 (AD protective, G78R) extracellular domain (1-196 aa) fused to murine IgG2a Fc (human) (UniProt Q9UKJ1); test: SPR; NPDC1-His binding to mIgG2a-tagged PILRA variants (S6C Fig); who was immobilised and the conditions not given
[9] = target: T1, PILRA G78 (AD risk) extracellular domain (1-196 aa) fused to murine IgG2a Fc (human, UniProt Q9UKJ1 20-196, R78G (by the check's mend)); test: as above; details: both partners purified
T1 construct: signal peptide in the construct; PILRA, human, ECD residues 1-196 of AJ400841, glycine at position 78; also called G78 PILRA-mFc; PILRA-mFC; not shown: Fc (murine IgG2a), C-terminal, kept
T1 sequence (Q9UKJ1 20-196 R78G): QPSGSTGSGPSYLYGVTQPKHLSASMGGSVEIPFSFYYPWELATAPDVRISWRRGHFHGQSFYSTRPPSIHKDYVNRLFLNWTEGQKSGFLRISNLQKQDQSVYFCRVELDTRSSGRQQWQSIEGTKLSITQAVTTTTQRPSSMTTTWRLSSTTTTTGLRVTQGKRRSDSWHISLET

Sequence of PILRA R78 (AD protective) variant, G78R (rs1859788), full length (human) (Q9UKJ1 20-303, stated change not applied): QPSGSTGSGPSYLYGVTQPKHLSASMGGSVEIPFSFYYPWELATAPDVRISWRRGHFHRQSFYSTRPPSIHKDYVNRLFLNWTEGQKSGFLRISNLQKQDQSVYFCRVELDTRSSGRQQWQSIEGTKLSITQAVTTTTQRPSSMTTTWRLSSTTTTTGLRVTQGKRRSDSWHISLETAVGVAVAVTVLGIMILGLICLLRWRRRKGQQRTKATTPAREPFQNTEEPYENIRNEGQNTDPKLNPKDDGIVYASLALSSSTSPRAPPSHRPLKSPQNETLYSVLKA
Sequence of PILRA R72A, full length (human) (Q9UKJ1 20-303 R72A): as the sequence (Q9UKJ1 20-303, stated change not applied) above, with R53A counted along it
Sequence of PILRA S80G, full length (human) (Q9UKJ1 20-303 S80G): as the sequence (Q9UKJ1 20-303, stated change not applied) above, with S61G counted along it
Sequence of PILRA F76A, full length (human) (Q9UKJ1 20-303 F76A): as the sequence (Q9UKJ1 20-303, stated change not applied) above, with F57A counted along it
Sequence of PILRA Q140A, full length (human) (Q9UKJ1 20-303 Q140A): as the sequence (Q9UKJ1 20-303, stated change not applied) above, with Q121A counted along it
Sequence of PILRA S141A, full length (human) (Q9UKJ1 20-303 S141A): as the sequence (Q9UKJ1 20-303, stated change not applied) above, with S122A counted along it

Row | Binder | percent of G78 PILRA binding [1] | percent of G78 PILRA binding [2] | percent of G78 PILRA binding [3] | percent of G78 PILRA binding [4] | percent of G78 PILRA binding [5] | percent of G78 PILRA binding [6] | percent of G78 PILRA binding [7] | Kd [8] | kon [8] | Kd [9] | kon [9]
1 | B1 | 20 % of G78 | 20 % of G78 | 35 % of G78 | 60 % of G78 | 22 % of G78 | 44 % of G78 | 117 % of G78 |  |  |  | 
2 | B2 |  |  |  |  |  |  |  | 76.5 nM | 6800 M⁻¹ s⁻¹ | 16.8 nM | 22000 M⁻¹ s⁻¹
